Laboratory results reported in patent US20090104205A1 (AstraZeneca / MedImmune, published 2009).

Experiments:
[1] = target: T1, C-terminal truncated RSV F protein (secreted, from recombinant baculovirus) (respiratory syncytial virus, UniProt P03420 26-524); test: SPR (BIAcore), F protein amine-coupled, Mab injected at 25-300 nM
T1 construct: also called immobilized F protein

[2] = target: T1, C-terminal truncated RSV F protein …; test: SPR (BIAcore), F protein amine-coupled, Kd = kd/ka
[3] = target: T2, RSV F protein (native, from RSV virus or RSV infected HEP2 cell lysate) (respiratory syncytial virus, UniProt P03420 26-574); test: capture ELISA: RSV infected HEP2 cell lysate captured on Mu1331 antibody; double reciprocal plot of OD vs antibody concentration
T2 construct: In the ELISA the antigen was whatever the Mu1331 anti-F antibody captured from the infected cell lysate; also called RSV F antigen; RSV F glycoprotein
T2 sequence (P03420 26-574): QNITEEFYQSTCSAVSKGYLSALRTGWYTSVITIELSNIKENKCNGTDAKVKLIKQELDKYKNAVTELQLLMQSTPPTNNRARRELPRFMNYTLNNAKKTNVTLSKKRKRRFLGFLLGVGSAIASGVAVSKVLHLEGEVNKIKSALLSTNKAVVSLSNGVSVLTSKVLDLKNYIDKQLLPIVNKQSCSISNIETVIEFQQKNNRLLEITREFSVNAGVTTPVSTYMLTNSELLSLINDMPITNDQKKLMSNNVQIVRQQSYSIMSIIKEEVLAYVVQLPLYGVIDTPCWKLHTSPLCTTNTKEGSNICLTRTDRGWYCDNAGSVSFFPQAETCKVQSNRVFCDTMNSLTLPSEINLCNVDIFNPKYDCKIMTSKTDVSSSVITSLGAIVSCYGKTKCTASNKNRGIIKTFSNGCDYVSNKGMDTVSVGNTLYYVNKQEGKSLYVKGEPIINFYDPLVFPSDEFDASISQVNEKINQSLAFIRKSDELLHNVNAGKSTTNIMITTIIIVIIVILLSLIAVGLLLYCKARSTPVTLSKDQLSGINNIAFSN

T1 sequence (P03420 26-524): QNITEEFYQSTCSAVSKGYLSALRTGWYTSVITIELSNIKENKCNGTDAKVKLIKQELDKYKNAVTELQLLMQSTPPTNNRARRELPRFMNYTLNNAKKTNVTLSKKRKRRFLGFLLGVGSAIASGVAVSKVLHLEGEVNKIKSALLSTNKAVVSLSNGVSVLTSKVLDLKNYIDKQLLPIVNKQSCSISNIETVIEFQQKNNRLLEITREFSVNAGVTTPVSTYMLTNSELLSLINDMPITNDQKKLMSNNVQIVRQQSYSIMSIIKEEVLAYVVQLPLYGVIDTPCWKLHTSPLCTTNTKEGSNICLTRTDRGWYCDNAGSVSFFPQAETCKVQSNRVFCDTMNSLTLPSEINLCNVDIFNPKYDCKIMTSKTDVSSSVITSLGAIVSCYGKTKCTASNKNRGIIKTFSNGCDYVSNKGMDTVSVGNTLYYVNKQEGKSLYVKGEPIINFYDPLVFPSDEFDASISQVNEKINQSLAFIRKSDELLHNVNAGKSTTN

Binder	koff [1] [s⁻¹]	kon [1] [M⁻¹ s⁻¹]	t1/2 (dissociation half-life) [1] [h]	Kd [2] [nM]	Kd [3] [nM]
murine monoclonal antibody MAb 1308F (antibody, V domains shown, also called M1308F; Mu1308F) VH: EVQKQQSGAELVRPGALVKLSCKASGFNIKDYYIYWVKQRPEQGLEWIGWIDPENGNTVFDPLFQGKASITSDTSSNTAYLQLSSLTSEDTAVYYCAYYGTSSFDFWGQGTTLTVSS VL: DIKMTQSPSSMYVSLGERVTITCKASQDINRYLNWFQQKPGKSPKTLIHRANRLVDGVPSRFSGSGSGQEYSLTISSLEFEDMGIYYCLQFHEFPYTFGGGTKLEIL	3.8e-05	35000	5.1	1.1	
murine monoclonal antibody MAb 1129 (antibody, V domains shown, also called M1129) VH: QVELQESGPGILQPSQTLSLTCSFSGFSLSTSGMSVGWIRQPSGEGLEWLADIWWDDKKDYNPSLKSRKTISKDTSSNQVFLKITGVDTADTATYYCARSMITNWYFDVWGAGTTVTVSS VL: DIQLTQSPAIMSASPGEKVTMTCSASSSVGYMHWYQQKSSTSPKLWIYDTSKLASGVPGRFSGSGSGNSYSLTISSIQAEDVATYYCFQGSGYPFTFGGGTKLEIK	0.0004	35000	0.48	11.4	
humanized 1308F (CDR-grafted anti-RSV F antibody, human IgG1/kappa) (antibody, V domains shown, also called H1308F; Hu1308F) VH: QVQLVQSGAEVKKPGASVKVSCKASGFNIKDYYIYWVRQAPGQGLEWIGWIDPENGNTVFDPKFNGRVTMTRDTSTSTVYMELSSLRSEDTAVYYCAYYGTSSFDFWGQGTTLTVSS VL: DIQMTQSPSTLSASVGDRVTITCKASQDINRYLNWYQQKPGKAPKLLIYRANRLVDGVPSRFSGSGSGTEFTLTISSLQPDDFATYYCLQFHEFPYTFGGGTKLEIL	5.5e-05	22000	3.5	2.5	
humanized 1129 (CDR-grafted anti-RSV F antibody, human IgG1/kappa) (antibody, V domains shown, also called H1129; Hu1129) VH: QVTLRESGPALVKPTQTLTLTCTFSGFSLSTSGMSVGWIRQPPGKALEWLADIWWDDKKDYNPSLKSRLTISKDTSKNQVVLKVTNMDPADTATYYCARSMITNWYFDVWGAGTTVTVSS VL: DIQMTQSPSTLSASVGDRVTITCKCQLSVGYMHWYQQKPGKAPKLWIYDTSKLASGVPSRFSGSGSGTEFTLTISSLQPDDFATYYCFQGSGYPFTFGGGTKLEIK	6.9e-05	49000	2.8	1.4	0.7
